Data reported in patent publication US20230033370A1 (Bicycle, published 2023).
*1 amine or outer side, *2 acyl side, *3 side chain or, on linkers, in order; H or OH if unused. Bridges are numbered along the chain shown (N, C = ends). Where no end group is shown, it is not given here. TCAN = N,N',N''-(nitrilotris(ethane-2,1-diyl))tris(2-chloroacetamide) scaffold, O=C(C[*:1])NCCN(CCNC(=O)C[*:2])CCNC(=O)C[*:3]

Biological target: T1, Human IL-17A (human, UniProt Q16552 24-155)
T1 construct: Soluble IL-17A used at a fixed concentration (75 nM with tracer BCY13196) in the FP assay; also called CTLA-8
T1 sequence (looked up): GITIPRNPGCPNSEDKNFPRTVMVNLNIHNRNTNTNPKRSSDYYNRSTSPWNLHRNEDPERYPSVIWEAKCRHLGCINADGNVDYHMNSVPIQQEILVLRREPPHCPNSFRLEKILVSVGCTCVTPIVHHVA
Assay: fluorescence polarization competition, 75 nM human IL-17A, 1 nM tracer BCY13196 as competitor, mean of n=3
Method: Affinity determination by fluorescence polarization (FP) competition. Bicycles were screened to determine affinity (Ki) in a fluorescence polarisation assay where in competition with a bicycle labelled with fluorescein (referred to as tracer) with a known affinity for IL-17A. Peptides were diluted to an appropriate concentration in assay buffer (PBS+0.01% Tween20, adjusted to pH7.4 using NaOH (1M)) with a maximum of 1% DMSO, then serially diluted 1 in 2 into assay buffer. Into black 384-well low volume plates, 5 μL of diluted peptide was added to the plate followed by 10 μL of IL-17A at a fixed concentration (75 nM IL-17A for tracer BCY13196, 50 nM IL-17A for tracer BCY13351), then 10 μL tracer added to a final concentration of 1 nM. Measurements were conducted on a BMG PHERAstar FS equipped with an “FP 485 520 520” optic module which excites at 485 nm and detects parallel and perpendicular emission at 520 nm. The PHERAstar FS was set at 25° C. with 200 flashes per well and a positioning delay of 0.1 second, with each well measured at 5 to 10 minute intervals for 60 minutes. The gain used for measurements was determined at the point of experiment on a tracer alone well. Data analysis was performed in Dotmatics where mP values were fit to the Cheng Prusoff equation in order to generate a Ki value. The tracers used was BCY13196: [Fl]-[…] […]

B1: BCY13061 (peptide)
peptide: ACPQDLELCTFLFGDCA
modifications: linker 2-9-16 via TCAN
notes: Synthetic bicyclic peptide cyclised on the TCAN scaffold
Which Ki does the source give for B1 here?
The Ki was 488 nM.
